From the DeepSol protein solubility set

test: soluble on expression in E. coli; label from the status in PepcDB or PDB records

Sequence	soluble on expression in E. coli
TDQGSTGIYYISIEGLVYPIRLEKEYINSFSLSPDEQHFIASVTKPDRPSELYSIPLGQEEKQLTGANDKFVREHTISIPEEIQYATEDGVMVNGWLMRPAQMEGETTYPLILNIHGGPHMMYGHTYFHEFQVLAAKGYAVVYINPRGSHGYGQEFVNAVRGDYGGKDYDDVMQAVDEAIKRDPHIDPKRLGVTGGSYGGFMTNWIVGQTNRFKAAVTQRSISNWISFHGVSDIGYFFTDWQLEHDMFEDTEKLWDRSPLKYAANVETPLLILHGERDDRCPIEQAEQLFIALKKMGKETKLVRFPNASHNLSRTGHPRQRIKRLNYISSWFDQHL	not soluble
GSARPKLRVVTLVEHPFVFTRESDEDGQCPAGQLCLDPGTNDSARLDALFAALVNGSVPRTLRRCCYGYCIDLLERLAEDLAFDFELYIVGDGKYGALRDGRWTGLVGDLLAGRAHMAVTSFSINSARSQVVDFTSPFFSTSLGIMVRTRGTELSGIHDPKLHHPSQGFRFGTVWESSAEAYIKASFPEMHAHMRRHSAPTTPHGVAMLTSDPPKLNAFIMDKSLLDYEVSIDADCKLLTVGKPFAIEGYGIGLPQNSPLTSNLSEFISRYKSSGFIDLLHDKWYKMVPCGK	soluble
SSPSLLEPLLAMGFPVHTALKALAATGRKTAEEALAWLHDHCNDPSLDDPI	soluble
AMATAPRPLREQYLHFQPISTRWHDNDIYGHVNNVTYYAFFDTAVNTYLIERGGLDIQGGEVIGLVVSSSCDYFAPVAFPQRIEMGLRVARLGNSSVQYELALFLEGQREACAAGRFVHVFVERRSSRPVAIPQELRDALAALQSSAQ	soluble
SLKQQLIKNGLVLDMKGNHKPQAKDILIEGKWIRDIRPNIEPEVDTEIIDAEGKIVMPGFVDTHRHVWESLLRHIGTDWTLLTYLDNLYYGNLGSMLTPEDSYIANLWGALEAIDAGVTTVLDWSMLETPEHADASIKGLQAAGIRAVFAHGTPGYETYWSRDSEVRHPKDAKRVKKEYFQSDDQLLTMALAIRGPEFSSWEVTLDDIQLARELDAIASMHIGFGTWGPHDRSITRMREAGLLDSDLNLVHVNRIQPHEYEYIAESGASLSVTPEVEMMMGHGYPATGYLHKHRGLVTLGVDVVVATAGDMFAQMKFALQAERAWQNEQRLDRGEMPEQLKMTTNDVLTFATLNGAKALKLDDKIGTLDVGKEADLLLINPSSFNLFPLNHEPVGAVVQSARPENVDSVFIAGRPVKRHGKLLFDDLDGLRNKVLAASEAVFHRQAAKN	not soluble
MTQAILALSQIEKAFPGVKALDKASLNVYPGRVMALMGENGAGKSTLMKVLTGIYSKDAGSIEYQGQPVSFKGPRDSQLAGISIIHQELNLIPQLTIAENIFLGREMTSPFGRILWDEMHRKADQLLARLNVKHSAKTLLGELSLGEQQMVEIAKALSFESKVIIMDEPTDALTDTETESLFNVINELREQGCGIVYISHRLKEIFEICDDITVLRDGKFIGECRVCDTNEDGLIEMMVGRKLEEQYPRIAAQQGDISLEVIGLTGSGVHDVSFTLKKGEILGVSGLMGAGRTELMKVIYGALPSERGVINLNGRTVNPVSPQDGLANGIAYISEDRKGDGLVLGLSVKENMSLCALDQLSKGVQIRHADEVIAVDDFIRLFNIKTPSREQIIGNLSGGNQQKVAIAKGLMTKPKVLILDEPTRGVDVGAKKEIYQLINQFKAEGMSIILVSSEMPEVLGMSDRILVMHEGRISGEFMASEADQEKLMACAVGRNPAHAA	not soluble
MSLKVEYFSDSSAVPHLHLENEDSYSVTDDLFIVADGVGSYEGSKDASRYAVNYLSKMAKEIQSKEQLVEEIIKLSEEIKSIGIISGRPLMSTTISVLKISTEKYITANVGDSPIVLLRSGKLYKLYIDDSERSSTGNRFALEQAFGWNHVIVHSFEGKLEKGDLFIICTDGVSDNLSDEYDLYSILRELDAQTIVRLALNKGIKPDDATIIKVYVTMAEGHHHHHH	soluble
MGSDKIHHHHHHENLYFQGMSVAHENARRIISDILGKQNIERVWFVGCGGSLTGFWPGKYFLDCEASKLAVGYITSNEFVHATPKALGKNSVVILASQQGNTAETVAAARVAREKGAATIGLVYQPDTPLCEYSDYIIEYQWARYPETVDPAQQKAAYSLWLALEILAQTEGYAQYDELVSAFGRFSDVVHGAQRQVQEDAQRFAAEWKDEKVVYMMGSGPSFGAAHQESICILLEMQWINSASIHSGEYFHGPFEITEPGTPFILLQSSGRTRPLDDRAIRFIERYQGKLQLIDADKLGIQDLSTDVGEYFCGLLHNCVLDVYNLALATARNHPLTTRRYMWKVEY	soluble
MGSDKIHHHHHHMNKTVDMTVNTIYLVGGGKGGVGKSVVALALVDHLQRRGVNTVLVENDTSNPDVMRAVHEEIACASFDLDTAGGWIDMVNYCDGHRDAVVVVSTAARNQDGVTRYGATLGSTLDELGRRLVVFWVINRQRDSLELLRQFSETFPDATVHVVRNGYYGAPERFVLYQDSKLRKSIEAKGRSLDFPELADRVADDLRSHRLSVRKAVETLPIGQRAELLRWRACYDAMFSQVTDDA	not soluble
SMARENGESSSSWKKQAEDIKKIFEFKETLGTGAFSEVVLAEEKATGKLFAVKCIPKKALKGKESSIENEIAVLRKIKHENIVALEDIYESPNHLYLVMQLVSGGELFDRIVEKGFYTEKDASTLIRQVLDAVYYLHRMGIVHRDLKPENLLYYSQDEESKIMISDFGLSKMEGKGDVMSTACGTPGYVAPEVLAQKPYSKAVDCWSIGVIAYILLCGYPPFYDENDSKLFEQILKAEYEFDSPYWDDISDSAKDFIRNLMEKDPNKRYTCEQAARHPWIAGDTALNKNIHESVSAQIRKNFAKSKWRQAFNATAVVRHMRKLHLGSSLDSSNA	soluble
KGIFSWESALTATYNKNEILDLNSETPMFINQIGNSYVTMLKAGYPINVFYGYVTDGLFQNWGEVNRHATQPGAAPGDIRFRDLNNDGVINDEDRTILGNPNPNWFFSLSNNLSYKGWELSVFLQGVAGNKIYNANNVDNEGMAAAYNQTTAVLNRWTGEGTSYSMPRAIWGDPNQNCRVSDRFVENGSYLRLKNITLSYTLPKKWLQKIQLENARISFSCENVATITRYSGFDPEVDVNGIDSSRYPISRTFSMGLNFNF	not soluble
MGSDKIHHHHHHMDEIELRHILHMNPELSFKEYRTKETLRKAVIEIGYEKIIEVAGTGLVIEKKETEDPYVVLRADMDALPIKEETGWEFASRNEYMHACGHDFHMSALYGAMKRLRNVKKNFLFVFQPAEETGGGAKEVVDFLKDKYEIKAAVGFHVTDEYDAGTVASRPGVLFASATEFDVYFKGVPAHVAFAEKGKDALKAAVSFLGWLYNKKWNALVGVGKISGGRARNIVPDEIKLEGTIRSEALRITEEVISNMVKQLGELKEEMGVDFAVERGSVYPEVKVDQNLFETLRETCQRLGFSFVECDMKWTGEDFGYFSQVFPSLLFWFGVGEGERFGLHHPRFLPNDRYIPMAADLLAELAMVI	not soluble
MGSDKIHHHHHHMDNYLAEQILKNLPFTPTQSQDSAIRSLAKYLFDREPYSVFLLRGYAGTGKTQLIASVVQTILEQGADCELLAPTGRAAKVLTTYTRHQAYTIHRQIYQATAAGIEEGGAYRIRRSSGRSTVFIVDESSMIGNESVEPTPFGSGSLLNDLLAYVNETDGCRLILAGDMAQLPPVGSVVSPALDAGVMETSYGLRIHECTLTEVVRQQKESAILSLATSLRRLLSNGISEKIKLNIRDSGDVSAISGTELIEALDASFRTVGMDETIIVSYSNKRALAYNLGIRSQVLYYEEELIRGDRLVVTRNNYRYCDRRDKTDFVANGEIVEILRLGKRYELYGFRFADATISLVEQGREIEARLLLDGLTAETAGLTHAQRQKLYDAVAEDYNSMASIPARRKAIKEDAFFSALEVKYAYAITCHKAQGGQWKHVYVDMGMLSYLPHDEQLCRWLYTAVTRASERLFLVNTPKDMLP	not soluble
MEQIGAALQQTLEPDAAIRKRGEEALRSLQSNPGYIIQILQLVVNEQQQIAPQIRIAAAVALKNFVKRNWGPAPEVEMGQEDEEQFRSMLLEAMFNTKSNVQEILSNALYLIAQRDFPEKWPDLVPYLSKFLNGADLNHLVASLASMEQIFRKFRFESKSAELWKELKKCLLSTQEPLTLLLRNMMEVGQRKDQLGADEIAQWLRVLLLIAKVYHSLCSQEIPEYFEDHLKDWMPHFLHLVQIDAPTQTSNSGEPTTLDELKHEICEIFTLYSQRYEEEISEFVPDIILAVWNLLKSTGPDTRYDTMVCAALEFLSMVSQRQYYEGHFTGEGVLKTLAENVCVQNLLLRQQDMELFEDEPLDYMKRDIEGTDVGTRRRGAIDLARGLCRRFEAQMLPCLGEIVQNLLGSGDWIKIDIVYSLITAIAVKTETAKSGVTATNPLVDINDFFITQVATHLNADVNQTPILKADALKFAVTFRKQLAPEHLMTAIKSADALLSSNTPILHKYAAYAIEKILLADSNKIFSAQNLPVSSILQNLVTAFDKDAKAQNSPYLIKAILRIIVILDDDTIRHADAIAVKLAQLVESATKNPADSVHTHFLFETICVLITKTRTIGASLDAQLLPLIEVIFREDLEDLIPYALQITGVLVSSCIARNSSIDQFSPFLPFLLSERLWARSANVPAALSVLEVILSVNAQRVVSENSGLILSHLARLLGSKTLDQYGFQLAATILPSIEHFEGSAMTFVLNTMFRRVQSSKTPKFMKLFIVFLCRFTIARSAQDLVQSCENIQTGMFGMLIEKVVCIDLPGLKQTTTGPEKRIIAIGMGNLLADVTQQLVGQYGILSYEVAMLLEAASASDRAVLSPEEEQASMYNAEGEFVNPFCRLSYAPKQPPVAANIANHKAYFAQAVLVRGPGNCPETLRSVPPEIVTYLQSIQQ	not soluble
MSLNDQYEALYQTFRWLVPTQFNIADACCHRWAASSPDARRIAIYYEDEAGNREVWTYARLAEAANQLANGLVKMGVERGDRVGVVLGQRPETVVAHMAIYSVGAVVLPLSPLFGPEALESRLRDADARVAIVDYASSANLLAISDNCPNLHQIIGIGFADERVLPWRSLLARQPNEFKMVATRASDPAILMYTSGTTGAPKGALLPHSVLIGNLPGFVASQDWFPRPGDVFWSPADWAWTGGMMDALLPTLYFGHPIVGTRGRFTPERAFELMERYQVTNTFLFPTALKMMMKSVPEPRGRYQLALRSIMSAGESVGETVFEWCEQALGITPNEMFGQTELNYVVGNSNRRWPARPGSMGRPYPGHRVAVIDEAGRPVKPGETGEVALNRFDIHGFPDPVLFLGYWRNEAATAAKFTDDWCRTGDLASIDADGYLWYAGRADDVFKSAGYRIGPGEIENCLLGHPAVANAAVVPKPDAERGALVKAYVVLTPEYQGRDPDSITQVLQEHVRDRLAPYEYPKEIEYVDALPMTTTGKIQRAVLRRREAERASGAHSEGHHHHHH	not soluble
MSLNIKRFVSWDCVNGIKGVLNENGKFSNNPMGVLNWIKAQTSEIPTILLVRDFHKFYDDPSISRTIKELSSSLRETNNNLILSSHILPSSEELDDLITILNLPLPDLSELTALIKKIAFNTDSDLSEQDLNELAIASSGLSEIKVKQVTAKALAQRGKISEGHHHHHH	not soluble
MAHHHHHHMDTDKIKKRINAYNQDGIRNSALAIILCHRYEYPHLLLLQNIESQTYHLLSGKYKSWEKPREVLKKKLQKYVNQIRDMHFGTSHFNTEEKETEDPIEIGEFLGEWWKTQFNSVYLPYLPAHITRPKEYIRLYQVTLTSRCIFHLPPGFTLKALPLFDLSTCGVAIGGLTSVLSRFKLHCMVPVEE	not soluble
MNDELKNKSGKVKVMYVRSDDDSDKRTHNPRTGKGGGRPAKSRTDGGRRPARDERNNQSRDRKHETSPWRTVSRAPGDETPEKVDHGGISGKSFIDPEVLRRQRAEETRVYGENACQALFQSRPDAIVRAWFIQSVTPRFKEALRWMAANRKAYHVVDEAELAKASGTEHHGGVCFLIKKRNGTTVKQWVKQAADQDCVLALEDVANPHNLGGMMRSCAHFGVKGVVVQDAALLESGAAIRTAEGGAEHVQPITGESIVDVLDDFRQAGYTVVTTSSDRGQALFSTTLPEKMVLVLGREYDYLPEAAREPDDLCVKINGTGNVESLNVSVATGVLLAEWWRQNKA	not soluble
